In this test the target is IPO11 (Importin-11) (UniProt Q9UI26). Briefly: co-immunoprecipitation, western blot. The conditions noted are these: reference: wild-type RPRM; sites S98. (Immunoblotting shows a protein as a band on a membrane.)

One substance from article PMC9519624 can be followed below.

With “RPRM (Reprimo) (from UniProt Q9NS64) RPRM S98A”, the “binding against the reference” value is recorded as “stronger”.
